Patent CN111234012A

Molecular target: HBV病毒 (HepAD38细胞上清制备的HBV病毒液)
Experiment: cell-based or functional assay

乙肝免疫球蛋白 (HBIG) (antibody)
HBV neutralisation on HepG2-NTCP cells, HBeAg in supernatant (IC50): 15 µg/mL
